Experimental findings from US20210047402A1 (published 2021) are described below.

B1: anti-CD22 heavy chain-only antibody Clone ID 335293 (antibody, V domains shown)
VH: QLQLQESGPGLVKPSETLSLTCTVSGDSISSGDYYWGWIRQPPGKGLEWIGHIYYSGATYYNPSLKNRVTISVDTSRNQFSLKLSSVTAADTAVYYCTREDSSSWRSRGQGTLVTVSS
B2: anti-CD22 heavy chain-only antibody Clone ID 335254 (antibody, V domains shown)
VH: QLQLQESGPGLVKPSETLSLTCTVSGDSISSGDYYWGWIRQPPGKGLEWIGHIYYSGVTYYNPSLKNRVTISVDTSKNQFSLKLSSVTAADTAVYYCTREDSSSWRSRGQGTLVTVSS
B3: anti-CD22 heavy chain-only antibody Clone ID 335203 (antibody, V domains shown)
VH: QLQLQESGPGLVKPSETLSLTCTVSGDSISSGDYYWGWIRQPPGKGLEWIGHIYYSGVTYYNPSLKNRVTISVDTSKNQFSLKLSSVTAADTAVYYCTREDSSNWRSRGQGTLVTVSS
B4: anti-CD22 heavy chain-only antibody Clone ID 335244 (antibody, V domains shown)
VH: QLQLQESGPGLVKPSETLSLTCTVSGDSISSGDYYWGWIRQPPGKGLEWIGHIYYSGATYYNPSLKNRVTISVDTSRNQFSLNLSSVTAADTAVYYCTREDSSSWRSRGQGTLVTVSS
B5: anti-CD22 heavy chain-only antibody Clone ID 335207 (antibody, V domains shown)
VH: QLQLQESGPGLVKPSETLSLTCTVSGDSISSGDYYWGWIRQPPGKGLEWIGHIYYSGVTYYNPSLKSRVTISVDTSRNQFSLKLSSVTAADTAVYYCTREDSSNWRSRGQGTLVTVSS
B6: anti-CD22 heavy chain-only antibody Clone ID 335158 (antibody, V domains shown)
VH: QLQLQESGPGLVKPSETLSLTCTVSGGSISSGDYYWGWIRQPPGKGLEWIGHIYYSGATYYNPSLKNRVTISVDTSRNQFSLKLSSVTAADTAVYYCTRDDSSNWRSRGQGTLVTVSS
B7: anti-CD22 heavy chain-only antibody Clone ID 335323 (antibody, V domains shown)
VH: QLQLQESGPGLVKPSETLSLTCTVSGDSISSGGYYWGWIRQPPGKGLEWIGSIYYSGSTYYNPSLKNRVTISVDTSKNQFSLKLSSVTAADTAVYYCTREDSSSWRSRGQGTLVTVSS
B8: anti-CD22 heavy chain-only antibody Clone ID 335170 (antibody, V domains shown)
VH: QLQLQESGPGLVKPSETLSLTCTVSGDSISSGDYYWGWIRQPPGKGLEWIGHIYYSGATYYNPSLKNRVTISVDTSRNQFSLKLSSVTAADTAVYYCTRDDSSNWRSRGQGTLVTVSS
B9: anti-CD22 heavy chain-only antibody Clone ID 335185 (antibody, V domains shown)
VH: QLQLQESGPGLVKPSETLSLTCTVSGDSISSGDYYWGWIRQPPGKGLEWIGHIYYSGATYYNPSLKNRVTISVDTSRNQFSLNLSSVTAADTAVYYCTREDSSNWRSRGQGTLVTVSS
B10: anti-CD22 heavy chain-only antibody Clone ID 335151 (antibody, V domains shown)
VH: QLQLQESGPGLVKPSETLSLTCTVSGDSISSGDYYWGWIRQPPGKGLEWIGHIYYSGATYYNPSLKNRVTISVDTSRNQFSLNLSSVTAADTAVYYCTRDDSSNWRSRGQGTLVTVSS
B11: anti-CD22 heavy chain-only antibody Clone ID 324508 (antibody, V domains shown)
VH: QLQLQESGPGLVKPSETLSLTCTVSGGSISSGDYYWGWIRQPPGKGLEWIGHIYYSGATYYNPSLENRVTISVDTSKNQFSLKLSSVTAADTAVYYCTRDDSSNWRSRGQGTLVTVSS
B12: anti-CD22 heavy chain-only antibody Clone ID 335245 (antibody, V domains shown)
VH: QLQLQESGPGLVKPSETLSLTCTVSGDSISSGDYYWGWIRQPPGKGLEWIGHIYYSGATYYNPSLKNRVTISVDTSKNQFSLKLSSVTAADTAVYYCTREDSSSWRSRGQGTLVTVSS
B13: anti-CD22 heavy chain-only antibody Clone ID 335181 (antibody, V domains shown)
VH: QLQLQESGPGLVKPSETLSLTCTVSGDSISSGGYYWGWIRQPPGKGLEWIGHIYYSGATYYNPSLKNRVTISVDTSKNQFSLKLSSVTAADTAVYYCTRDDSSNWRSRGQGTLVTVSS
B14: anti-CD22 heavy chain-only antibody Clone ID 335261 (antibody, V domains shown)
VH: QLQLQESGPGLVKPSETLSLTCTVSGDSISSGDYYWGWIRQPPGKGLEWIGHIYYSGATYYNPSLENRVTISVDTSKNQFSLKLSSVTAADTAVYYCTREDSSSWRSRGQGTLVTVSS
B15: anti-CD22 heavy chain-only antibody Clone ID 335176 (antibody, V domains shown)
VH: QLQLQESGPGLVKPSETLSLTCTVSGDSISSGDYYWGWIRQPPGKGLEWIGHIYYSGATYYNPSLKNRVTISVDTSKNQFSLKLSSVTAADTAVYYCTRDDSSNWRSRGQGTLVTVSS
B16: anti-CD22 heavy chain-only antibody Clone ID 335182 (antibody, V domains shown)
VH: QLQLQESGPGLVKPSETLSLTCTVSGDSISSGDYYWGWIRQPPGKGLEWIGNIYYSGATYYNPSLKNRVTISVDTSKNQFSLKLSSVTAADTAVYYCTRDDSSNWRSRGQGTLVTVSS
B17: anti-CD22 heavy chain-only antibody Clone ID 335271 (antibody, V domains shown)
VH: QLQLQESGPGLVKPSETLSLTCTVSGDSISSGDYYWGWIRHPPGKGLEWIGHIYYSGATYYNPSLKNRVTISVDTSKNQFSLKLSSVTAADTAVYYCTREDSSSWRSRGQGTLVTVSS
B18: anti-CD22 heavy chain-only antibody Clone ID 335307 (antibody, V domains shown)
VH: QLQLQESGPGLVKPSETLSLTCTVSGDSISSGDYYWGWIRQPPGKGLEWIGSIYYSGSTYYNPSLKSRVTISVDTSKNQFSLKLSSVTAADTAVYYCTREDSSSWRSRGQGTLVTVSS
B19: anti-CD22 heavy chain-only antibody Clone ID 335218 (antibody, V domains shown)
VH: QLQLQESGPGLVKPSETLSLTCTVSGDSISSGDYYWGWIRQPPGKGLEWIGHIYYSGATYYNPSLKNRVTISVDTSRNQFSLKLSSVTAADTAVYYCTREDSSNWRSRGQGTLVTVSS
B20: anti-CD22 heavy chain-only antibody Clone ID 335301 (antibody, V domains shown)
VH: QLQLQESGPGLVKPSETLSLTCTVSGDSISSGDYYWGWIRQPPGKGLEWIGNIYYSGATYYNPSLKNRVTISVDTSKNQFSLKLSSVTAADTAVYYCTREDSSSWRSRGQGTLVTVSS
B21: anti-CD22 heavy chain-only antibody Clone ID 335206 (antibody, V domains shown)
VH: QLQLQESGPGLVKPSETLSLTCTVSGDSISSGDYYWGWIRQPPGKGLEWIGHIYYSGATYYNPSLKNRVTISVDTSKNQFSLKLSSVTAADTAVYYCTREDSSNWRSRGQGTLVTVSS
B22: anti-CD22 heavy chain-only antibody Clone ID 335260 (antibody, V domains shown)
VH: QLQLQESGPGLVKPSETLSLTCTVSGDSISSGDYYWGWIRQPPGKGLEWIGHIYYSGVTYYNPSLKNRVTISVDTSRNQFSLNLSSVTAADTAVYYCTREDSSSWRSRGQGTLVTVSS
B23: anti-CD22 heavy chain-only antibody Clone ID 335154 (antibody, V domains shown)
VH: QLQLQESGPGLVKPSETLSLTCTVSGDSISSGDYYWGWIRQPPGKGLEWIGHIYYSGVTYYNPSLKNRVTISVDTSKNQFSLKLSSVTAADTAVYYCTRDDSSNWRSRGQGTLVTVSS
B24: anti-CD22 heavy chain-only antibody Clone ID 335160 (antibody, V domains shown)
VH: QLQLQESGPGLVKPSETLSLTCTVSGDSISSGDYYWGWIRQPPGKGLEWIGSIYYSGATYYNPSLKNRVTISVDTSKNQFSLKLSSVTAADTAVYYCTRDDSSNWRSRGQGTLVTVSS
B25: anti-CD22 heavy chain-only antibody Clone ID 335161 (antibody, V domains shown)
VH: QLQLQESGPGLVKPSETLSLTCTVSGDSISSGDYYWGWIRQPPGKGLEWIGHIYYSGATYYNPSLENRVTISVDTSKNQFSLKLSSVTAADTAVYYCTRDDSSNWRSRGQGTLVTVSS
B26: anti-CD22 heavy chain-only antibody Clone ID 335162 (antibody, V domains shown)
VH: QLQLQESGPGLVKPSETLSLTCTVSGGSIISSSYYWGWIRQPPGKGLEWIGSIYYSGSAYYHPSLKSRVTISIDTSKNQFSLKLSSVTAADTAVYYCARDDSSNWRSRGQGTLVTVSS
B27: anti-CD22 heavy chain-only antibody Clone ID 335316 (antibody, V domains shown)
VH: QLQLQESGPGLVKPSETLSLTCTVSGGSISSSSYYWGWIRQPPGKGLEWIGHIYYSGATYYNPSLKNRVTISVDTSKNQFSLKLSSVTAADTAVYYCTREDSSSWRSRGQGTLVTVSS
B28: anti-CD22 heavy chain-only antibody Clone ID 335187 (antibody, V domains shown)
VH: QLQLQESGPGLVKPSETLSLTCTVSGGSISSSSYYWGWIRQPPGKGLEWIGHIYYSGATYYNPSLKNRVTISVDTSKNQFSLKLSSVTAADTAVYYCTRDDSSNWRSRGQGTLVTVSS
B29: anti-CD22 heavy chain-only antibody Clone ID 335159 (antibody, V domains shown)
VH: QLQLQESGPGLVKPSETLSLTCTVSGGSISSSSYYWGWIRQPPGKGLEWIGHIYYSGVTYYNPSLKNRVTISVDTSKNQFSLKLSSVTAADTAAYYCTRDDSSNWRSRGQGTLVTVSS
B30: anti-CD22 heavy chain-only antibody Clone ID 335285 (antibody, V domains shown)
VH: QLQLQESGPGLVKPSETLSLTCTVSGGSISSSSYYWGWIRQPPGKGLEWIGSIYYSGVTYYNPSLKNRVTISVDTSKNQFSLKLSSVTAADTAVYYCTREDSSSWRSRGQGTLVTVSS
B31: anti-CD22 heavy chain-only antibody Clone ID 335150 (antibody, V domains shown)
VH: QLQLQESGPGLVKPSETLSLTCTVSGDSISSGDYYWGWIRQSPEKGLEWIGHIYYSGVTYYNPSLKNRVTISVDTSKNQFSLKLSSVTAADTAVYYCKRDDSSNWRSRGQGTLVTVSS
B32: anti-CD22 heavy chain-only antibody Clone ID 335274 (antibody, V domains shown)
VH: QLQLQESGPGLVKPSETLSLTCTVSGGSISSSSYYWGWIRQPPGKGLEWIGSIYYSGSTYYNPSLKSRVTISVDTSRNQFSLNLSSVTAADTAVYYCTREDSSSWRSRGQGTLVTVSS

For one assay, the target named is T1, human CD22 (human, UniProt P20273 20-687). In words: BLI. The method, boiled down: (§1)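 Heavy chain-only antibodies were loaded at 5 μg/mL for 120 seconds onto anti-human IgG Fc capture biosensors on an Octet QK-384, using 1×PBS, 0.1% BSA, 0.02% Tween-20, pH 7.2 buffer. Human CD22 protein was applied in a 7-point 1:2 dilution series beginning at 250 nM, alongside a buffer-only reference well, and the data were fit to a 1:1 binding model in Octet Data Analysis v9.0. Kd, the affinity measure from this biolayer interferometry assay, was obtained as koff/kon.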
T1 sequence (P20273 20-687): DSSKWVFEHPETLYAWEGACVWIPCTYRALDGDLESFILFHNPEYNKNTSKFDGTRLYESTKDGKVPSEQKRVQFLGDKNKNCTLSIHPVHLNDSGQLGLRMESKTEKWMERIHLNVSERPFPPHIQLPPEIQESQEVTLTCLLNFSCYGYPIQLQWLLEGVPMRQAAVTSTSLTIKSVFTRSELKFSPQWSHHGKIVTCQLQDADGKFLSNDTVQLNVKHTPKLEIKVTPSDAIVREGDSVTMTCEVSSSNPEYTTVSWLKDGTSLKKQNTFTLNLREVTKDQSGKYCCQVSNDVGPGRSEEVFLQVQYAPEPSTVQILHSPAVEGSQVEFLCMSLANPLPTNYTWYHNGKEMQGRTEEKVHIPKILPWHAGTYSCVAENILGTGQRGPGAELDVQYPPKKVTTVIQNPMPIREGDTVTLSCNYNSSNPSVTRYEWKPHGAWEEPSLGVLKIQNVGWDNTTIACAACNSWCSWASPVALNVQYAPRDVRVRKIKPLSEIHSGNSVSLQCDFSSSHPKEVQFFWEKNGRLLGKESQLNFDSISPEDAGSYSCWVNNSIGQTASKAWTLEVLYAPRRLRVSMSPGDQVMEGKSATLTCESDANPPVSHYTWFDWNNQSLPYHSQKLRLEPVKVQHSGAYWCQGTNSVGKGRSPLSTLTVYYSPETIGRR
In general terms: Biolayer interferometry detects binding as a change in optical thickness at a sensor tip.
B1 gave a Kd of 7.41 nM. For B2, the Kd came to 2.83 nM. In the case of B3, the Kd came out at 6.8 nM.

B4 returned a Kd of 5.07 nM. As to B5, the Kd is 3.24 nM. The molecule B6 registered a Kd of 42.3 nM. On the same count and under the same terms, the figure for B7 is 14.1 nM; for B8 it is 6.5 nM; for B9 it is 8.43 nM. For B10, the Kd is 3.77 nM.

B11 yielded a Kd of 12.5 nM. On the same count and under the same terms, to B12 belongs 7.44 nM.

Molecule B13 displayed a Kd of 9.44 nM. Consider B14, for which the affinity, expressed as Kd, was 5.27 nM.

B15 registered a Kd of 4.62 nM. In turn, B16 came in with a Kd of 22.4 nM.

Regarding B17, the Kd was found to be 21.6 nM. On to B18, for which binding was characterised by a dissociation constant (Kd) of 10.3 nM. As to B19, the Kd amounted to 8.91 nM. Same read-out and setting: the figure for B20 is 12.6 nM. Molecule B21 registered a Kd of 7.53 nM. In turn, B22 had a Kd of 3.17 nM. Still for that read-out and setting: to B23 belongs 5.41 nM; to B24, 8.51 nM. Take B25: the Kd was 2.66 nM.

For another assay, the target named is T1, human CD22. In words: BLI. This is another data set of the same source. The method, boiled down: as §1
Take B26: binding was characterised by a dissociation constant (Kd) of 99.6 nM. On the same count and under the same terms, the figure for B27 is 23.5 nM; for B28 it is 128 nM. As for B29, the Kd was found to be 16.1 nM.

B30 had a Kd of 114 nM. Same read-out and setting: to B31 belongs 14.1 nM; to B32, 23.6 nM.

For orientation: Kd means the free concentration of one partner at which half of the binding sites on the other are occupied at equilibrium, for simple one-to-one binding.
